Our source for the koff and Kd values is article PMC6760140 (2019).

Where two headings read alike, the source gives them in different places.

By koff is commonly meant the first-order rate constant of dissociation. The term Kd denotes the constant that tells how readily two partners part at equilibrium.

Common to all, as to experiment: BLI
(In BLI a coated tip is dipped into the sample, and binding shifts an interference pattern.)

Test [1] addresses T1, Recombinant His-tagged Pfs25 (Plasmodium falciparum, UniProt P13829 17-196).
The target of test [2] is T1, Recombinant His-tagged Pfs25. The source holds these as a separate data set.
The target is the same in test [3]. The source holds these as a separate data set.

B1: 2530 Fab (Fab, V domains shown)
VH: QVQLQESGPGLVKPSETLSLTCTVSGDSMSSYYWSWIRQPAGKGLEWIGRISTSGSTNYNPSLKSRVTMSVDTSNNHFSMRLNSVTAADTAVYYCACSGSYSFFDYWGQGTLVTVSS
VL: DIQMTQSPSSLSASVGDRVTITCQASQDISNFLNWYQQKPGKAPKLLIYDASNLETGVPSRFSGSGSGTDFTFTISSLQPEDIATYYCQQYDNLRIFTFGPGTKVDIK
For the molecule B1, the koff in test [1] was determined as 0.0062 s⁻¹. Besides, the equilibrium dissociation constant (Kd) in test [2] was 19.2 nM.

B2: 2587 Fab (Fab, V domains shown)
VH: QVQLVQSGAEVRKPGASVKVSCKASGYSFTSYILNWVRQATGQGLEWMGWMNPDSNNTEYAQKFQGRVTITRDTSISTVYMELSGLRSEDTAVYYCARHSFKSNTGFDYWGQGTQVTVSS
VL: SYELSQPPSVSVSAGQTASITCSGDKLGGKYGYWYQQRPGQSPILVIYQDSKRPSGIPERFSGSNSGNTATLTISGTQAMDEADYYCQAWDISTNWVFGGGTKLTVL
As to B2, the Kd in test [3] was 4.6 nM. For the same molecule, in test [1], the koff is 0.0007 s⁻¹.

B3: 2544 Fab (Fab, V domains shown)
VH: EVQLVESGGGLVQPGGSLRLSCVASGFTFSNYNMNWVRQAPGKGLEWLSYISSSSGTIYYADSVKGRFTISRDNAKNSMYLQMNSLRAEDTAVYYCVRVEYYYGSSGYYYDFDSWGQGTLVTVSS
VL: DIVMTQSPLSLPVTPGEPASISCRSSQSLLHNGYNYLDWYLQKPGQSPQLLIYLGSNRASGVPDRFSGSGSGTDFTLKISRVEAEDVGVYYCMQTLQPFTFGQGTRLEIK
For B3, in test [1], the koff came to 0.00075 s⁻¹.

B4: 2586 Fab (Fab, V domains shown)
VH: EVHLVESGGGLVQPGGSLRLSCAASGFTFSDHYMDWVRQAPGKGLEWVGRIRNKANSYTTDYAASVKGRFTILRDDSKNSLYLQMNSLKTEDAAVYYCVRVGGLGERGDYYYYYMDVWGKGTTVTVSS
VL: SYELTQPPSVSFSPGQTARITCSGDALSKQYTYWYQQKPGQAPVLVIYKDSERPSGIPERFSGSSSGTTVTLTISGVQAEDEADYYCQSADSSGPYQVLFGGGTKLTVL
For B4, in test [1], the koff came to 0.00037 s⁻¹. Besides, in test [2], the Kd worked out at 2.5 nM.
